One substance from PMC5402964 can be followed below.

This assay has as its target α5β1 integrin (UniProt P08648). Nature of the assay: SPR. In general terms: In SPR one partner is held on a chip, and binding of the other changes the refractive index at the surface.

Turning to “DisBa-01 (disintegrin of Bothrops alternatus), recombinant His-tag protein (natural protein; other documents disagree on this pair)”, the Kd was 76.2 µM.

As usually defined, the Kd is the free concentration of one partner at which half of the binding sites on the other are occupied at equilibrium, for simple one-to-one binding. A lower Kd goes with tighter binding.
